This test has as its target glutamate-1-semialdehyde aminotransferase (GSAAT), endogenous (Arabidopsis thaliana (endogenous in leaf extracts; the plant of the chloroplast extracts is not named)) (UniProt P42799). In words: non-reducing SDS-PAGE with immunoblot; wild-type Arabidopsis leaf extracts, untreated or pretreated with H2O2, diamide or DTT for 30 min at room temperature; non-reducing 8% SDS-PA gel (the text says non-denaturing PA gel); GSAAT-specific antibody. On the technique in general: In western blotting, separated proteins are transferred to a membrane and probed.

Sequence of glutamate-1-semialdehyde aminotransferase (GSAAT), endogenous (P42799 39-474): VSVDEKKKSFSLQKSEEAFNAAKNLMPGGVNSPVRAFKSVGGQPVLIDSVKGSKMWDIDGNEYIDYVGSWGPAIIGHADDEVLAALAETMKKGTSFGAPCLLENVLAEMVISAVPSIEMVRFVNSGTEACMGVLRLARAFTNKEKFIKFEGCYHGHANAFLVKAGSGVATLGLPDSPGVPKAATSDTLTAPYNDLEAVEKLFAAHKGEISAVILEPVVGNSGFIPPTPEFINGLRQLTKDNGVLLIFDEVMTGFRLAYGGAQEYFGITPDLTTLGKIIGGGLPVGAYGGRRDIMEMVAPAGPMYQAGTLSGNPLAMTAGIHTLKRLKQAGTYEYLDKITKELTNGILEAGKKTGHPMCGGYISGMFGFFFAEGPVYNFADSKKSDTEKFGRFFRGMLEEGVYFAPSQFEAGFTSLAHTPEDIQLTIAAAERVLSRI

What is called stoichiometry N is a count of units in the complex or per binding partner. On to “glutamate-1-semialdehyde aminotransferase (GSAAT), endogenous (from UniProt P42799 39-474) (enzyme)”, for which the stoichiometry N was 2.

For the origin of these results see publication PMC12678314.
